Results as given in PMC9371678.

Molecular target: HA-PTH1R_(mTurquoise/mCitrine) (human) (UniProt Q03431)
Sequence of UniProt Q03431 (Q03431 27-593): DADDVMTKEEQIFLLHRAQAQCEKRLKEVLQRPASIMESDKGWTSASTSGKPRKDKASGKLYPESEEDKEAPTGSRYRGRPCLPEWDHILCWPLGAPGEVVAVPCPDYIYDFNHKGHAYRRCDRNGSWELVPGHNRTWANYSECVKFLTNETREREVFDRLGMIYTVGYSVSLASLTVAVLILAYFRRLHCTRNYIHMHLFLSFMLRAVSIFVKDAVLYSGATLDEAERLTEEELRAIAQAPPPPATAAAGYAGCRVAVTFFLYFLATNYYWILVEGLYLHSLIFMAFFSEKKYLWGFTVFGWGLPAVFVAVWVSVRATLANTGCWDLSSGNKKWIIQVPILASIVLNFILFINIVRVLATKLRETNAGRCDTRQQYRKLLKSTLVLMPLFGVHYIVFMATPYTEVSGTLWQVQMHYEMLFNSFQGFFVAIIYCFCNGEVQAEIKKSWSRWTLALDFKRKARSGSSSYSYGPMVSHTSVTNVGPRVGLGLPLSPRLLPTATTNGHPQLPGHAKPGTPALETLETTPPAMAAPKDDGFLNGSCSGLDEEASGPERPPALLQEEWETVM

“parathyroid hormone PTH (1–34) (peptide)” showed a pEC50 of the PTH-induced FRET change of the PTH1R (FRET) conformational biosensor (plate reader, HEK293 cells), with RAMP2 (SNAP) coexpressed (1 µg cDNA) of 8.59 and a pEC50 of the PTH-induced FRET change of the PTH1R (FRET) conformational biosensor (plate reader, HEK293 cells), without RAMP2 of 8.73.
